Assays:
[1] = molecular target: human CTD-His (cytosolic C-terminal domain of ZnT8, C-terminal His-tag) (human) (UniProt Q8IWU4); assay: ELISA, mAb titration on CTD (CTD-His) captured on a plate
[2] = molecular target: T1, human ZnT8-His (full-length ZnT8, isoform-2, C-terminal His-tag) (human, UniProt Q8IWU4-2 1-320); assay: ELISA titration to ZnT8 proteoliposomes, hyperbolic fit (printed as binding affinity)
T1 construct: mature; Expressed in 293-F cells; Used detergent-solubilized on nickel-coated plates, or purified and reconstituted into DOPC/DOPE/DOPG proteoliposomes (mixed orientations); Described as a homodimer; also called flZnT8; detergent-solubilized ZnT8; not shown: C-terminal His-tag
T1 sequence (looked up): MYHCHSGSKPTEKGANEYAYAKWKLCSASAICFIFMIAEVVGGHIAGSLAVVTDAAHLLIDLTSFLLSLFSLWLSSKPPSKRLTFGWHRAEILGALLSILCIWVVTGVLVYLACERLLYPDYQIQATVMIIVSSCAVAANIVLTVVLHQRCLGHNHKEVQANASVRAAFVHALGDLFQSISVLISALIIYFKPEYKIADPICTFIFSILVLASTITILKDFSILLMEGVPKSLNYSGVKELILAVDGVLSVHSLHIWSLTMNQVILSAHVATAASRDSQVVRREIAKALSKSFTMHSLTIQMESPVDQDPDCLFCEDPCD
Experimental: (§1) Comparative ELISAs. For proteoliposome-based ELISA, 4 μg proteoliposomes (containing 5% human ZnT8-His by weight) diluted in 100 μl PBS were added to each well of a high-binding 96-well plate, and incubated overnight at 4° C. The passively immobilized proteoliposomes were blocked with 5% BSA, and then tested with hybridoma culture supernatants. For solution-based ELISA, 293-F cells expressing human ZnT8-His or CTD-His were mechanically lysed using a microfluidizer, and cleared of cell debris by ultracentrifugation. Then, 0.2 μg human ZnT8-His from detergent-solubilized cell membrane or 0.1 μg CTD-His from cell lysate in 100 μl PBS were immobilized to each well of a nickel-coated 96-well plate via the C-terminal His-tag. The immobilized protein was blocked by 5% BSA, and then tested with mouse sera in 3-fold serial dilutions or hybridoma culture supernatants. Bound serum antibodies were detected by an HRP-conjugated goat anti-mouse IgG secondary antibody (1:3000) on a Flexstation-3 microplate reader.
Lymphocytes responsible for the production of antibodies to highly conserved epitopes of ZnT8 may be eliminated during the development of self-tolerance that prevents lymphocytes from attacking self-antigens. […]

[3] = molecular target: T1, human ZnT8-His (full-length ZnT8, …); assay: ELISA, mAb titration on detergent-solubilized flZnT8 (ZnT8-His) captured on a plate
Description: FIGS. 1A-1G show induction of anti-TMD antibodies and biochemical characterization. […] The TMD is imbedded in the lipid bilayer while the CTD is extended into the cytoplasm. […] Error bars are standard errors from 4 ZnT8-KO or 4 NOD mice, *p<0.01 (n=4). […] Note, ZnT8 in proteoliposomes adopted mixed transmembrane orientations exposing either TMD or CTD to antibody binding as indicated. Solid lines are least-square fits of binding curves to a hyperbolic function with r2>0.98.
as §1, with “The immobilized protein was blocked by 5% BSA, and then tested with mouse sera in 3-fold serial dilutions or hybridoma culture supernatants.” left out

[4] = molecular target: T1, human ZnT8-His (full-length ZnT8, …); assay: ELISA titrations
[5] = molecular target: T2, human ZnT8 (endogenous, in EndoC-βH1 cells and human pancreatic islets) (human, UniProt Q8IWU4 1-369); assay: cell-based or functional assay
T2 sequence: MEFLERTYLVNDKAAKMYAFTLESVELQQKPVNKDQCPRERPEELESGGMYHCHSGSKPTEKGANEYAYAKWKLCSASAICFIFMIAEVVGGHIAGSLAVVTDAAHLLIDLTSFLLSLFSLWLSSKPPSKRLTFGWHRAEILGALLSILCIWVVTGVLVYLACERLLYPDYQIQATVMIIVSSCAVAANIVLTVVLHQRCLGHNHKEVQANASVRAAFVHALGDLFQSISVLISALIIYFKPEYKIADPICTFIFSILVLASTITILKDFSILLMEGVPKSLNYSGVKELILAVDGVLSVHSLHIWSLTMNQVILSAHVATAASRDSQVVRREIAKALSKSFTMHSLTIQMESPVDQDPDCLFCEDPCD

[6] = molecular target: T2, human ZnT8 (endogenous, in EndoC-βH1 …); assay: imaging quantification, live EndoC-βH1 cells, 8 °C (cell surface binding)
Experimental: (§2) For intracellular IF labeling, live cells were washed with a high glucose (20 mM) Krebs buffer, fixed using a flowcytometry fixation buffer for 20 min at RT, washed again using PBS, permeabilized with flowcytometry permeabilization buffer for 20 min at RT, blocked with PBS plus 5% BSA for 30 min, and then exposed to mAb43 (1:1000), mAb20 (1:1000), anti-CD71 (1:200) or anti-Na+/K+ ATPase (1:200) antibody for 2 hr at room temperature. Secondary antibody immunolabeling, DAPI counterstain and immunofluorescence imaging were performed using the same procedure as above. For experiments with wild-type INS-1E cells or ZnT8-KO INS-1E cells (13), cells were grown in RMPI 1640 medium supplied with 10% (v/v) fetal bovine serum (FBS), 100 units/ml penicillin, 100 μg/ml streptomycin, 10 mM HEPES, 2 mM glutamine, 1 mM sodium pyruvate and 50 μM β-ME. Immunofluorescence labeling and imaging followed the same procedure as above.
(§3) To track cell-surface capture of mAb43 and the ensuing ZnT8-mediated mAb43 endocytosis, a fluorescent A647 secondary antibody to label mAb20 and mAb43, and a CellMask green stain were used to demarcate the cell boundary. Live EndoC-βH1 cells were monitored for antibody surface binding and internalization. mAb43-A647 was rapidly internalized at 37° C. whereas mAb20-A647 exposure yielded no detectable signal (FIG. 5A). […]

[7] = molecular target: T3, mouse ZnT8 (endogenous, in mouse pancreatic islets and β-cells) (mouse, UniProt Q8BGG0 1-367); assay: immunofluorescence of dispersed, fixed and permeabilized mouse islet cells
T3 construct: whole, on cells
T3 sequence (looked up): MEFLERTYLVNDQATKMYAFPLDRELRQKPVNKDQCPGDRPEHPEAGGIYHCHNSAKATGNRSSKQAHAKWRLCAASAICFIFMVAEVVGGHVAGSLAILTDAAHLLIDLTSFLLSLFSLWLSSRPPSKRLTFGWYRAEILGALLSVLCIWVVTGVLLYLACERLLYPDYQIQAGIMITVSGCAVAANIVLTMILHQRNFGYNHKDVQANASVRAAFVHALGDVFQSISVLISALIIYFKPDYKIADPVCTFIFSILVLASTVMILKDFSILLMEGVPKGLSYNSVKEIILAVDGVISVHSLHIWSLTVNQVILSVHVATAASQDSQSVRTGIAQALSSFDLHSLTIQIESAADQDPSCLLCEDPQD

[8] = molecular target: T2, human ZnT8 (endogenous, in EndoC-βH1 …); assay: imaging quantification, live EndoC-βH1 cells, 37 °C (surface binding and uptake)
Experimental: as §2, §3

[9] = molecular target: T4, rat ZnT8 (endogenous, in INS-1E cells) (rat, UniProt P0CE46 1-368); assay: immunofluorescence of live INS-1E cells; labeling abolished in ZnT8-knockout INS-1E cells
T4 construct: whole, on cells; also called ZnT8 in rodent β-cells
T4 sequence (looked up): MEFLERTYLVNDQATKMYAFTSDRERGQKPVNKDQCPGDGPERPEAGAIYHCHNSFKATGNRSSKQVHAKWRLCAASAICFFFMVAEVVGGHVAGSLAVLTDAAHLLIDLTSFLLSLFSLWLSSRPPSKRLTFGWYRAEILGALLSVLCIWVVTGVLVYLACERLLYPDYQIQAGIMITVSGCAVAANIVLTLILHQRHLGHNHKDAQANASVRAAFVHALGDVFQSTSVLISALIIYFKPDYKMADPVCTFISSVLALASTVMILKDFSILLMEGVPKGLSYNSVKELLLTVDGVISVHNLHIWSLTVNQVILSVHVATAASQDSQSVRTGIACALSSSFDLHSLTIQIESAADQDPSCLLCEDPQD

[10] = molecular target: T3, mouse ZnT8 (endogenous, in mouse …); assay: flow cytometry of live dispersed mouse pancreatic cells, chimeric mAb20 and PE anti-human IgG, DCV gate
Experimental: Tissue dispersion and pancreatic cell labeling. Excised pancreata from C57BL/6 mice were cut into small pieces, minced, and washed with HBSS on a 70-μm strainer to remove hematopoietic cells. The washed tissue pellets were resuspended in accutase and incubated at 37° C. for 30 min. DCV was added to stain DNA of live cells. The dispersed cells were filtrated through the strainer by a gentle spin at 1200 rpm for 2 min. The remaining tissue pellets underwent additional cycles of accutase digestion and cell filtration to achieve a complete cell dispersion. The dispersed cells were pooled and washed with cold cell culture medium with DNase and trypsin/chymotrypsin inhibitors. At this point, cell viability, measured by trypan blue exclusion, was typically over 80%. […] Chimeric mAb20 was used as an isotype control.
Fluorescence activated cell sorting and confocal microscopy analysis. The labeled pancreatic cells were analyzed and sorted immediately on a MoFlo XDP cell sorter (Beckman Coulter) equipped with a 405 and 561 nm laser. Data were collected on forward scatter, side scatter, and 440 nm and 578 nm fluorescence channels. Cells gated on forward and side scatter yielded >1 million single-cell counting events. The sorted cells in R0 or R1 gate were deposited on the glass bottom of a microwell dish by a gentle centrifugation (1200 rpm, 1 min). […]

B1: mAb20 (antibody, mouse IgG1, kappa, V domains shown)
VH: QIQLVQSGPELKKPGETVKISCKASGYIFTNYPMHWVKQAPGKGLKWMGWINTYSGVPTHADDFKGRFAFSLETSANSAFLQINNLKNEDTATYFCTRSRITPTGGYAMDYWGQGTSVTVSS
VL: DVVMTQTPLSLPVSLGDQASISCRSSQSLVHSNGNTYLHWYLQKPGQSPNLLISKVSNRFSGVPERFSGSGSGTDFTLKISRVEAEDLGVYFCSQNTHVPWTFGGGTKLEIKR
notes: Validated anti-CTD control antibody; also called anti-CTD mAb20; mAb20-A647 (mAb20 labeled with a fluorescent A647 secondary antibody)
With B1 the EC50 (read off the curve) [1] was 700 pM, the Kd [2] was 570 pM and the “EC50 (read off the curve)” value [3] was roughly 2000 pM.

B2: mAb43 (antibody, V domains shown)
VH: EVQLQQSGPELVKPGASVKIACKASGYTFTGYYMKWVKQSLGKSLEWIGDINPNNGGTNYNQHFKGKATLTVDESSSTAYMELRSLTSEDSAVYYCARGVDWIFAFWGQGTLVTVSP
VL: SIVMTQTPKFLPVSAGDRVTMTCKASQSVGNKVAWYQQKPGQSPKLLIYYATNRYTGVPDRFTGSGSGTDFTFTISSVQVEDLAVYFCQQHYSSPWTFGGGTKLEIK
notes: Hybridoma monoclonal antibody from a ZnT8-proteoliposome-immunized NOD mouse; also called mouse mAb43; anti-TMD mAb
With B2 the “fold increase of mAb43 reactivity, ZnT8 in proteoliposomes against detergent-solubilized ZnT8” value [4] was 6.29 fold, the “net mAb43-A647 uptake (difference in IF signals between 37 °C and 8 °C), fold increase by glucose stimulation (20 against 2 mM)” value [5] was 30.9 fold and the “fold increase of total mAb43-A647 IF-labeling by glucose stimulation (20 mM against 2 mM) at 8 °C” value [6] was 15 fold. For the same binder, the binding result [7] was “binds”, the “fold increase of total mAb43-A647 IF-labeling by glucose stimulation (20 mM against 2 mM) at 37 °C” value [8] was 22.1 fold and the Kd [2] was 420 pM. For the same binder, the binding result [9] was “binds” and the “EC50 (read off the curve)” value [3] was roughly 2000 pM.

B3: chimeric mAb20 (mouse/human) (antibody, V domains shown)
VH: B1 VH
VL: DVVMTQTPLSLPVSLGDQASISCRSSQSLVHSNGNTYLHWYLQKPGQSPNLLISKVSNRFSGVPERFSGSGSGTDFTLKISRVEAEDLGVYFCSQNTHVPWTFGGGTKLEIK
notes: also called mouse/human chimeric mAb20
B3: no binding [10].
